This is an account of results in paper PMC3907796.

The target of the experiment is DAO-6H (recombinant D-amino acid oxidase with C-terminal (His)6) (UniProt P14920).
Chain of DAO-6H (recombinant D-amino acid oxidase with C-terminal (His)6) (P14920 whole entry): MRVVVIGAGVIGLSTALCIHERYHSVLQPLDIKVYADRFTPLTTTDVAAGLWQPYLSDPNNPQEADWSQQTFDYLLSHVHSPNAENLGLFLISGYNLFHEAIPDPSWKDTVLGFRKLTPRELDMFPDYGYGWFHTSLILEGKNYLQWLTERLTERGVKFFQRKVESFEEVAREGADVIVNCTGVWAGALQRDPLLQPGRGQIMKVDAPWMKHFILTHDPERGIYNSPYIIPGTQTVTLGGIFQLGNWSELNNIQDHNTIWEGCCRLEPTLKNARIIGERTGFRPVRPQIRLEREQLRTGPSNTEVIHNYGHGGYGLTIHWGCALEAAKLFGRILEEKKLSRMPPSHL

B1: G72-6H (recombinant full-length G72 with C-terminal (His)6, refolded) (natural protein)
chain: MLEKLMGADSLQLFRSRYTLGKIYFIGFQRSILLSKSENSLNSIAKETEEGRETVTRKEGWKRRHEDGYLEMAQRHLQRSLCPWVSYLPQPYAELEEVSSHVGKVFMARNYEFLAYEASKDRRQPLERMWTCNYNQQKDQSCNHKEITSTKAE
Take B1: the initial velocity (V0) of DAO activity (400 nM DAO-6H, 40 mM D-alanine, 25 °C) with 0, 1, 3, 10 μM G72; V0 at 10 μM, fold of DAO alone in parentheses (mol hydrogen peroxide produced/min/g DAO) was found to be 8.06.
